# Residue numbers refer to the chain shown, from its start.
# T1: recombinant cynomologus IL-23 (cynomolgus, limits assumed)
# T1 construct: also called cynomolgus IL-23; cyno IL23
# T1 chain 1: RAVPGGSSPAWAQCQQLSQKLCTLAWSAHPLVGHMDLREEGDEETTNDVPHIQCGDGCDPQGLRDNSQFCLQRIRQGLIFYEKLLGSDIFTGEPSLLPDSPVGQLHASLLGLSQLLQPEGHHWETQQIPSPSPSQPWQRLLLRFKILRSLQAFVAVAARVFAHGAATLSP
# T1 chain 2: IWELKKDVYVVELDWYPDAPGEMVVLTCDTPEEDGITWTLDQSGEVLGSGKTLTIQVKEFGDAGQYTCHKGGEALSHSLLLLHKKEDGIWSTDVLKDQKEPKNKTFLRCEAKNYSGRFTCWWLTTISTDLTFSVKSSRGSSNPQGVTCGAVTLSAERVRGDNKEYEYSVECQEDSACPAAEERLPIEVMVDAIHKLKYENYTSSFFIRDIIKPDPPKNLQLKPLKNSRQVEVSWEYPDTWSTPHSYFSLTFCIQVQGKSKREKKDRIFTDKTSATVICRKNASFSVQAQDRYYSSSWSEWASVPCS
# T2: recombinant human IL-23 (human, UniProt Q9NPF7 20-189; P29460 23-328)
# T2 construct: also called hIL-23
# T2 sequence 1: T1 chain 1 with A12T, R75H, P131L
# T2 sequence 2: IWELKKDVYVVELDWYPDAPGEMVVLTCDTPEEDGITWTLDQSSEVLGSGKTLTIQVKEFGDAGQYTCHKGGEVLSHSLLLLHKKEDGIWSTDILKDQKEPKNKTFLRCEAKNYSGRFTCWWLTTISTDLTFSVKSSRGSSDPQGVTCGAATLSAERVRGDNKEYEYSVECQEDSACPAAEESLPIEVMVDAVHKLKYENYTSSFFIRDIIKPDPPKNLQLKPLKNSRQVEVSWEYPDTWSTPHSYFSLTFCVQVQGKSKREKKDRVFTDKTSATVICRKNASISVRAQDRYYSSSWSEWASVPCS
# B1: A3M0 (antibody, human IgG1, kappa, V domains shown)
# VH: QVQLVQSGAEVKKPGSSVKVSCKASGYTFTSYGITWVRQAPGQGLEWMGENYPRSGNTYYNEKFKGRVTITADKSTSTAYMELSSLRSEDTAVYYCARSEFISTVVAPYYYALDYWGQGTLVTVSS
# VL: DIVMTQSPDSLAVSLGERATINCKASKKVTIFGSISALHWYQQKPGQPPKLIYNGAKLESGVPDRFSGSGSGTDFTLTISSLQAEDVAVYYCLQNKEVPYTFGGGTKVEIKR
# notes: Full length chains; also called humanized mAb A3M0
# B2: chimeric 8C92H6 HC1LC1 (antibody, V domains shown)
# VH: QVQLQQSGAELARPGTSVKLSCKASGYTFTSYGITWVKQRTGQGLEWIGENYPRSGNTYYNEKFKGKATLTADKSSSTAYMELRSLTSEDSAVYFCARCEFISTVVAPYYYALDYWGQGTSLVTVS
# VL: DIVLTQSPASLAVSLGQKATISCKASKKVTIFGSISALHWYQQKPGQPPKLIYNGAKLESGVSARFSDSGSQNRSPFGNQLSFTLTIDPVEADDAATYYCLQNKEVPYTFGGGTKLEIKR
# notes: Murine variable regions with human constant regions; also called 8C92H6.HC1LC1 Chimera; 8C9 chimera
# What was measured:
# [1] = molecular target: T1, recombinant cynomologus IL-23; assay: IL-23/IL-23R inhibition ELISA (optimised protocol, OD450): plate coated with human IL23R Fc chimera, antibody pre-incubated with constant cynomolgus IL-23, bound IL-23 detected with biotinylated anti-human IL-12; purified antibody
# Experimental: Optimised protocol: Plates were coated with human IL23R Fc chimera at […] (phosphate buffered saline). 50 μl/well of this mixture was incubated overnight at 4° C. The plates were then washed three times with Phosphate Buffered Saline with 0.05% Tween 20 (PBST). Plates were blocked with 4% skim milk powder (Fluka BioChemika #70166) PBST 100 μl/well for a minimum of 1 hour at room temperature. The plates were then washed three times with Phosphate Buffered Saline+0.05% Tween 20 (PBST). Various concentrations of antibody were incubated in a separate plate with a constant concentration of IL-23 for 1 hour at room temperature. 50 ul of each mixture were transferred to the assay plate and incubated at RT for 1 hr. They were then washed three times with Phosphate Buffered Saline+0.05% Tween 20 (PBST). Bound IL23 was detected by anti human 1L12 Biotin labelled Ab (R&D systems BAF219) diluted to 100 ng/ml in 4% skim milk powder (Fluka BioChemika #70166) PBST. 50 μl/well of the biotinylated antibody was added and incubated at RT for 1 hour. The plates were then washed three times with Phosphate Buffered Saline+0.05% Tween 20 (PBST). SA HRP (GE healthcare RPN4401) was diluted 1/4000 in 4% skim m ilk powder (Fluka BioChemika #70166) PBS, 50 μl/well was added to the plates. The plates were then washed three times with Phosphate Buffered Saline+0.05% Tween 20 (PBST). 50 ul/well of TMB was added to the plates and incubated at RT for 15 min. 25 μl/well of 3 MH₂SO₄ was added to the wells already containing TMB. The plate was read at OD450 nm using the SOftmaxPRO versamax plate reader.
# recombinant human IL-23 [2] = molecular target: T2, recombinant human IL-23; assay: sandwich ELISA (optimised protocol, OD450): plate coated with anti-human IL-12, antibody pre-incubated with constant human IL-23, bound antibody detected with anti-human IgG gamma chain HRP; purified antibody
# Experimental: Optimised assay conditions: Plates were coated with anti human IL12 at 2 μg/diluent (phosphate buffered saline). 50 μl/well of this mixture was incubated overnight at 4° C. The plates were then washed three times with Phosphate Buffered Saline with 0.05% Tween 20 (PBST). Plates were blocked with 4% skim milk powder (Fluka BioChemika #70166) PBS 200 μl/well for a minimum of 1 hour at room temperature. The plates were then washed three times with Phosphate Buffered Saline+0.05% Tween 20 (PBST). Various concentrations of antibody were incubated in a separate plate with a constant concentration of IL-23 for 1 hour at room temperature. 50 ul of each mixture were transferred to the assay plate and incubated at RT for 1 hr. They were then washed three times with Phosphate Buffered Saline+0.05% Tween 20 (PBST). […] 50 μl/well of the detection antibody was added and incubated at RT for 1 hour. The plates were then washed three times with Phosphate Buffered Saline+0.05% Tween 20 (PBST). 50 μl/well of TMB was added to the plates and incubated at RT for 10 min. 50 μl/well of 1 MH₂SO₄ was added. The plate was read at OD450 nm using the SOftmaxPRO versamax plate reader.
# recombinant human IL-23 [3] = molecular target: T2, recombinant human IL-23; assay: SPR (Biacore T100), purified antibody captured on anti-human IgG, IL-23 analyte (different source of IL-23), 1:1 model
# Experimental: Biacore analysis was carried out using a capture surface on a CM5 chip. Anti-human IgG (BR-1008-39) was used as the capturing agent. Anti-human IgG was coupled to a CM5 biosensor chip by primary amine coupling. Humanized antibody was captured on this immobilised surface and defined concentrations of IL-23 were passed over this captured surface. An injection of buffer over the captured antibody surface was used for double-referencing. […] T100 Biacore machine was used to generate the data; all runs were carried out at 25° C. using HBS EP. Data was analysed using the software inherent to the machine and fitted to the 1:1 model of binding. Tables 7 and 8 detail the IL-23 binding analysis carried out on the 8C92H6.HC1LC1 chimera and selected humanized variants in two separate experiments. Data presented in Tables 7 and 8 are from purified antibody samples. The data shown for the humanized variants is representative of a number of runs. The chimeric mAb (8C9H6.HC1LC1) was only run once in each experiment, so data shown for this mAb is from that one run.
Binder,IC50 (read off the curve) [1] [nM],EC50 (read off the curve) (recombinant human IL-23 [2]) [nM],Kd (recombinant human IL-23 [3]) [nM],koff (recombinant human IL-23 [3]) [s⁻¹],kon (recombinant human IL-23 [3]) [M⁻¹ s⁻¹]
B1,~0.7,~0.03,0.19,0.00024,1.27e+06
B2,~2,~0.1,0.364,0.000337,925000

# Source: US20090123479A1 (published 2009)
